Experimental data reported in patent US20250026813A1 (published 2025).
Changes are numbered by the printed parent chain.

B1: IMPI-013 (antibody, V domains shown)
VH: EVQLVESGGGLVQPGRSLRLSCAASGFTFDDYAMHWVRQTPGKGLEWVSGISWNSGSIGYADSVKGRFTISRDNAKNSLYLQMNSLRAEDTALYYCTKDLGLGIGFYYGLDVWGQGTTVTVSS
VL: AIQMTQSPSSLSTSVGDRVTITCRASQGIRNDLGWYQLKPGKAPKLLIYDASTLQSGVPSRFSGSGSGTDFTLTISSLEPEDLATYYCLHHYTYPWTFGHGTKVELK
B2: IMPI-068 (antibody, V domains shown)
VH: QVQLVESGGDVVQPGRSLRLSCAASGFTFSRYGMHWVRQAPGKGLEWVAVISYDGSDKYYADSVKGRFTISRDNSKNTLYLQMNSLRAEDTAVYYCAKQLPLYYYYYGMDVWGQGTTVTVSS
VL: AIQLTQSPSSLSASVGDRVTITCRASQGISSALAWYQQKPGKAPNLLIYDASSLESGVPSRFSGSGSGTDFTLTISSLQPEDFATYYCQQFNIYPHTFGPGTKVDIK
B3: IMPI-004 (antibody, V domains shown)
VH: QVQLVESGGGVVQPGRSLRLSCAASGFTFSSYGMHWVRQAPGKGLEWVAVIWYDGGNKYYADSVKGRFTISRDNSKNTLYLQMNSLRAEDTAVYYCARVNVLMGYGMDVWGQGTTVTVSS
VL: EIVLTQSPGTLSLSPGDKATLSCRASQSIISSFLAWYQQKPGQAPRLLIYGASSRATGIPDRFSGSGSGTDFTLTISRLEPEDFAVYYCQQYGSSLTFGGGTKVEIK
B4: IMPI-002 (antibody, V domains shown)
VH: EVQLVESGGGLIQPGGSLRLSCAASGVTVSSNYMSWVRQAPGKGLEGVSVIYSGGSTYYADSVKGRFTISRDNSKNTLYLQMNSLRAEDTAVYYCARDTVVYGMDVWGQGTTVTVSS
VL: DIQLTQSPSFLSASVGDRVTITCWASQGISSYLAWYQQKPGKAPKLLIYAASTLQSGVPSRFSGSGSGTEFTLTISSLQPEDFATYYCQQLNSYPLTFGGGTKVEIK
B5: IMPI-028 (antibody, V domains shown)
VH: B4 VH with V27F, G47W, T99Y, V100G, V101D, Y102L, G103Y, M104F, V106Y, T112L
VL: EIVLTQSPGTLSLSPGERATLSCRASQSISSYLAWYQQKPGQAPRLLIYGASSRATGIPDKFSGSGSGTDFTLTISRLEPEDFAVYYCQQYGSSPRTFGQGTKVEIK
B6: IMPI-052 (antibody, V domains shown)
VH: B4 VH with S35N, S56T
VL: B4 VL with A50T
B7: IMPI-056 (antibody, V domains shown)
VH: EVQLVESGGGLIQPGGSLRLSCAASGLTVSSNYMNWVRQAPGKKLEWVSVIYSGGSTFYADSVRGRFTISRDNSKNTLFLQMNSLRAEDSAVYYCARDLGPYGVDVWGQGTTVTVSS
VL: B4 VL with G100Q, K103R, V104L
B8: IMPI-067 (antibody, V domains shown)
VH: QVQLVESGGGVVQPGTSLRLSCAASGFTFNSFGMHWVRQAPGKGLEWVAVISYDGSSKYYADSVKGRFTISRDNSKNTLYLQMNSLRAEDTAVYYCAKDEGDYDDYYYGMDVWGQGTTVTVSS
VL: EIVLTQSPGSLSLSPGERATLSCRASQSLSSRYLAWYHQKPGQAPRLLIYGASSRATGIPDRFSGSGSGTDFTLTISGLEPEDFAVYYCQQYGNSITFGGGTKVEIK
B9: IMPI-038 (antibody, V domains shown)
VH: B8 VH with T16R, N30S, F32Y, S57D, D99T, E100V, G101A, D102G, D104Y, D105Y
VL: DIQMTQSPSSVSASVGDRVTVTCRASQDISSWLAWFQQKPGKAPKFLIYDASNLENGVPSRFSGSGSGTDFTLTISSLQPEDFATYYCQQAKSFPWTFGQGTKVEIN
B10: YANG-2302 (antibody, V domains shown)
VH: QVQLVQSGAEVRKPGASVKVSCKVSGYTLPELAIHWVRQAPGKGLEWMGGFIPEDGDTIYAQKFQGRVTMTEDTSTDTAYMDLTSLRSEDAAVYYCTSGWAAPGYNYGMAVWGQGTTVTVSS
VL: EVVLTQSPGTLSLSSGERATLSCRASQSVSSNYLAWYQKKPGQAPRLLIYGASSRVTGIPDRFGGSGSGTDFTLTISRLEPEDFAVYYCQQYDASPYSFGQGTKLDIK
B11: YANG-2301 (antibody, V domains shown)
VH: QVHLIQSGAEVKKPGASVKVSCKVSGYTLIEVSVHWVRQAPGKGLEWMGGFDPEAAETIYAQKFQGRVTMTEDTSTDTAYMDLSSLKSEDSAVYYCAIGPAVTGRNSGEYYYYYGMDVWGQGTTVTVAS
VL: EIVMTQSPATLSVSPGERATLSCRASQSVNSNLAWYQQKPGQAPRLLIYAVSTRATGLPARFSGSGSGTEFTLTISSLQSEDFVVYYCHQYNNWPLTFGGGTKVEIK
B12: YANG-2205 (antibody, V domains shown)
VH: QIQLVQSGAEVKKPGASVKFSCKTSGYTFTSYYMVWVRQAPGQGLEWMGIIKPSGGNTIYAQKFQGRVTMTRDTSTNTVYMDLSSLRSEDTAVYYCARTGDRAFDVWGHGTMITVSS
VL: QSVLTQPPSVSAAPGQKVTISCSGSSSNIGNNFVSWYQQFPGTAPKLLIYDNNKRPSGIPDRFSGSKSGTSATLGITGLQTGDEADYYCGTWDSSLGAGVFGGGTKLTVL
B13: YANG-2208 (antibody, V domains shown)
VH: B12 VH with K12R, K19R, T28I, S31N, S84N, S85N, Y95F, H109Q, I113V
VL: B12 VL with V10M, S25N, Q38R, G97S
B14: YANG-2206 (antibody, V domains shown)
VH: B12 VH with F20L, Y60F, S84N, I113V
VL: B12 VL with F33Y, L107V
B15: YANG-2207 (antibody, V domains shown)
VH: B12 VH with I2M, F20I, S31N, M81L, D101N, I113V
VL: B12 VL
B16: YANG-1205 (antibody, V domains shown)
VH: QVQLVQSGAEVKKPGASVKVSCKASGYTFTSYCIHWVRQAPGQGLEWMGIINPSGGGTIFAQKFQGRVTMTRDTSTTTVYMELGSLRSDDTALYYCARGWSYDFWSGPDYWGQGTLVSVSS
VL: DIVMTQTPLSLSVTPGQPASISCKSSQSLLHSDGKTYLYWYLQKPGQPPQLLIYEVSNRFSGVPDRFSGSGSGTDFTLKISRVGAEDVGIYYCMHSIKLPPTFGQGTKVEIK
B17: YANG-1204 (antibody, V domains shown)
VH: QVQLVESGGGVVQPGRSLRLSCAVSGFTFSNYGIHWVRQAPGKGLVWVAVISYEGSIKYYGDSVKGRFTISRDNSKNTLYLQMNSLRAEDTAVYYCARGAVAGNDAFDIWGQGTMVTVSS
VL: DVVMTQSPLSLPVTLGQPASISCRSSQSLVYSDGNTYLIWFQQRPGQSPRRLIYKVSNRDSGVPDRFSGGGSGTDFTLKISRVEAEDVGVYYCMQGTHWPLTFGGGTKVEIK
B18: YANG-1206 (antibody, V domains shown)
VH: QVHLVESGGGMVQPGRSLRLSCAASGFTFSIYAMHWVRQAPGKGLEWVAVISYDGSNKYYADSVKGRFTISRDNSKNTLYLQMNSLRAEDTAVYYCAKVYGGSYWGGFDYWGQGTLVTVSS
VL: QSVLTQPPSVSGAPGQRVTISCTGTSSNIGSIYDVHWYQQLPGTAPKLLIYGNSNRPSGVPDRFSGSKSGTSASLAITGLQAEDEADYYCQSYDTSLSGSWVFGGGTKLNVL
B19: YANG-1202 (antibody, V domains shown)
VH: EMQLVESGGGLVQPGGSLRLSCAASGFTFSSFWMRWVRQAPGKGLEWVANIKQDGTEKYYVDSVKGRFTISRDNAKNSLYLQMNSLRAEDTAVYYCVRDRVGGDYYYYDMDVWGQGTTVTVSS
VL: DIQMTQSPSSLSASVGDRVTITCRASQDISNYLAWFQQKPGKAPKSLIYAASSLQSGVPSKFSGSGSGTDFTLTISGLQPEDSATYYCQQYNSYPRTFGQGTKVEIK
B20: YANG-1203 (antibody, V domains shown)
VH: EVRLVESGGALVQPGRSLRLSCAASGFIFDGYAMHWVRQVPGKGLEWVSGISWNSGNIGYADSVKGRFTISRDNAKNSLYLQMNSLRAEDTALYYCAKDIRPSGKYYYGMDVWGQGTTVTVSS
VL: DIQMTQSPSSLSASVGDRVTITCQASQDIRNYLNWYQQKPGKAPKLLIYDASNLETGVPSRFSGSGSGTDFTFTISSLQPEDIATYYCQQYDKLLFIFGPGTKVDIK
B21: YANG-1118 (antibody, V domains shown)
VH: EVQLVESGGGLVKPGGSLRLSCAASGFTFSSYALNWVRQAPGKGLEWVSSISTGSSYIFYADSVKGRFTISRDNAKHSLSLQMNSLRAEDTAVYYCAKTGDLPFFDYWGQGTLVTVSS
VL: QSALTQPASVSGSPGQSITISCTGTSSDVGRYNYVSWYQQHPGKAPKLMIYEVSNRPSGVSNRFSGSKSGNTASLTISGLQAEDEADYYCISYTSSSTMVFGGGTKLTVL
B22: YANG-1201 (antibody, V domains shown)
VH: QVQLQESGPGLVKPSGTLSLTCAVSGDSISNSKWWSWVRQPPGKGLEWIGEIFHSGSTNYNPSLKSRVTISVDKSQNQFSLKLNSVTAADTAVYYCARSASLYYYYGVDVWGQGTTVTVSS
VL: EIVLTQSPGTLSLSPGERATLSCRASQSVSNNYLAWYQQKPGQAPRLLIYGTSRRDTGIPDRFSGSGSGTDFTLTISRLEPEDFAVYYCEQYGSLPRTFGQGTKVEIK
B23: YANG-1207 (antibody, V domains shown)
VH: QVQLVESGGGVVQPGRSLRLSCAASGFTFSSYGMHWVRQAPGKGLEWVSVIWYDGTNKYYADSVKGRFTISRDNSKNTLYLQMNSLRAEDTAVYYCAREGVEFTGYFDYWGQGTLVTVSS
VL: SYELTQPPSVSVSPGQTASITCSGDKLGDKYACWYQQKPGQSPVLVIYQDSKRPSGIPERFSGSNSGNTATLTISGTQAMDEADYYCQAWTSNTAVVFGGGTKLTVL

The binders below were run against full-length stabilised spike trimer protein of SARS-CoV-2 virus (in-house, soluble ECD with trimeris (SARS-CoV-2, UniProt P0DTC2 14-1208; P10104 458-484) (assay: not given).

Binder | HTRF deltaF
B1 | 1420 deltaF
B2 | 1600 deltaF
B3 | 952 deltaF
B4 | 913 deltaF
B5 | 480 deltaF
B6 | 1130 deltaF
B7 | 1630 deltaF
B8 | 963 deltaF
B9 | 1310 deltaF

Each binder was assayed against SARS-CoV-2 spike protein bearing furin mutation and truncation in retention sequence, presented in t (SARS-CoV-2, UniProt P0DTC2 14-1273) (assay: cell-based or functional assay).

Binder | PV neutralisation IC50 | PV neutralization % (Ab 1 ug/mL)
B10 | 0.61 nM | 52.2%
B11 | 0.53 nM | 56.4%
B12 | 3.35 nM | 47.5%
B13 | 4.68 nM | 38.2%
B14 | 3.96 nM | 42%
B15 | 2.59 nM | 57.8%

The binders below were run against SARS-CoV-2 spike protein bearing furin mutation and truncation in retention sequence, on pseudoviral particles (SARS-CoV-2, UniProt P0DTC2 14-1255) (assay: cell-based or functional assay).

Binder | PV neutralization % (Ab 1 ug/mL) | PV neutralisation IC50
B16 | 40.2% | –
B17 | 44.8% | –
B18 | 45.9% | –
B19 | 51.9% | –
B20 | 41.4% | –
B21 | 99.3% | 0.25 nM
B22 | 40.6% | –
B23 | 39.9% | –
